Experiments:
ERF2 [1] = molecular target: T1, ERF2 (Nicotiana tabacum, UniProt Q40479 Q40479:1-233); assay: competition; 10 ng unlabeled mERE did not inhibit ERF2-ERE complex; conditions: tags: His tag (pET15b, Novagen); GATC 5' overhangs
From the text: The binding activity of ERF2 to ERE was investigated using gel-shift assays. The DNA fragment containing a 53 bp wild-type ethylene-responsive element (ERE) was used as a DNA probe after labeled with a radioactive tracer using (γ^-32P)ATP and T4-polynucleotide kinase (Takara Bio INC., Kyoto, Japan). Multi-copied and linked ERE (SEQ ID NO: 3 and 4) or mERE (SEQ ID NO: 5 and 6) fragments (FIG. 1) were used as wild-type and mutant-type competitors, respectively. mERE (mutant-type) was similar to ERE (wild-type), except that the DNA nucleotide sequence in the GCC box contains base substitutions. The mixture of 1 ng of radio-labeled DNA probe (1,000 to 10,000 cpm) and 10 ng of recombinant ERF without or with 10 ng of a competitor DNA in 10 µl of the binding buffer shown in Table 1 was incubated for 45 minutes at 25° C.
The samples after binding reaction were subjected to 4% polyacrylamide gel electrophoresis (acrylamide:bisacrylamide=39:1, 1 mm in thickness, 13 cm long) containing 0.25×TB buffer (22.5 mM Tris-borate, pH 8.0) at 25° C. for 3 hrs at 100 V. The gel was dried and exposed to Fuji Imaging Plate® (Fuji Photo Film Co. Ltd., Kanagawa, JAPAN; a radiosensitive layer of phosphor crystals on a polyester backing plate). The electrophoresis mobility pattern was visualized using Bio-Image Analyzer (Fuji Photo Film Co. Ltd., Kanagawa, JAPAN). […]

ERF2 [2] = molecular target: T1, ERF2; assay: in vitro transcription activation of pERE in HeLa nuclear extract with tTBP; conditions: tags: His tag (pET15b, Novagen); label: 32P 5' end; GATC 5' overhangs
Procedure: (§1) Moreover, the in vitro transcription reaction was assayed in the following way. The HeLa nuclear extracts used for the in vitro transcription were prepared as reported previously (Meth. Enzymol. 101:582–598(1983)).
The transcription reaction mixture was incubated for 60 min at 30° C. and 75 µl of the reaction stopping solution (Table 2) was added to stop the reaction. Then, 100 µl of PCIAA (50% phenol, 48% chloroform, 2% isoamilalcohol) was added to the reaction mixture to recover the aqueous phase. After that, 100 µl of CIAA (96% chloroform, 4% isoamilalcohol) was added to the aqueous phase and the aqueous phase was recovered. Then, 10 µl of 3 M sodium acetate and 300 µl of ethyl alcohol were added to the aqueous phase to precipitate nucleic acid. The nucleic acid was dried and was dissolved in 10 µl of urea solution (5M urea, 1 mM EDTA, 0.1% bromophenol blue). The nucleic acid sample was subjected to electrophoresis using 6% polyacrylamide gel (acrylamide:bisacrylamide=19:1, 1 mm of thickness, 12.5 cm long) containing 89 mM Tris-borate (pH 8.3), 2 mM EDTA and 8 M urea at 300 V. When bromophenol blue in the sample had migrated to the lowest edge of the gel, the gel was removed and was soaked in 1 L of water containing 5% methanol and 5% acetic acid and then in 1 L of water containing 5% methanol, each for 20 min. […]

ERF1 = ERF1 (Nicotiana tabacum, UniProt Q40476 Q40476:1-236); assay: in vitro transcription activation of pERE in HeLa nuclear extract; conditions: tags: His tag (pET15b, Novagen); label: 32P 5' end; GATC 5' overhangs
Sequence of ERF1 (Q40476 whole entry, one chain of several): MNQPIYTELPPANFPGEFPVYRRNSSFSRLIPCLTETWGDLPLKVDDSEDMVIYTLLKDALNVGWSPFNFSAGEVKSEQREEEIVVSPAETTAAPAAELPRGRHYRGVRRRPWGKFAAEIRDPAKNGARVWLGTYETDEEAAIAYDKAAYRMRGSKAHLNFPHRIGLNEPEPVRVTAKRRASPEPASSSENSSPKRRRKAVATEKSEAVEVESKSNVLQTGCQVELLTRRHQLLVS
Procedure: as §1
(§2) The transcription reaction mixture was incubated for 60 min at 30° C. and 75 µl of the reaction stopping solution (Table 2) was added to stop the reaction. Then, 100 µl of PCIAA (50% phenol, 48% chloroform, 2% isoamilalcohol) was added to the reaction mixture to recover the aqueous phase. After that, 100 µl of CIAA (96% chloroform, 4% isoamilalcohol) was added to the aqueous phase and the aqueous phase was recovered. Then, 10 µl of 3 M sodium acetate and 300 µl of ethyl alcohol were added to the aqueous phase to precipitate nucleic acid. The nucleic acid was dried and was dissolved in 10 µl of urea solution (5M urea, 1 mM EDTA, 0.1% bromophenol blue). The nucleic acid sample was subjected to electrophoresis using 6% polyacrylamide gel (acrylamide:bisacrylamide=19:1, 1 mm of thickness, 12.5 cm long) containing 89 mM Tris-borate (pH 8.3), 2 mM EDTA and 8 M urea at 300 V. When bromophenol blue in the sample had migrated to the lowest edge of the gel, the gel was removed and was soaked in 1 L of water containing 5% methanol and 5% acetic acid and then in 1 L of water containing 5% methanol, each for 20 min. Then, the gel was attached to a filter paper, dried and exposed to Fuji Imaging Plate overnight. RNA was visualized using Bio Image Analyzer.
(§3) As in the case of reference example 2, the inventors examined the activity of transcriptional activation of other ERFs. […] The activity of transcriptional activation of each ERF was as follows; amplification by ERF3, 3 fold; that by ERF4, 3.5 fold; that by ERF1, 4 fold; that by ERF2, 5 fold.

ERF4 = ERF4 (Nicotiana tabacum, UniProt Q40478 Q40478:1-291); assay: as above; conditions: tags: His tag (pET15b, Novagen); label: 32P 5' end; GATC 5' overhangs
Sequence of ERF4 (Q40478 whole entry, one chain of several): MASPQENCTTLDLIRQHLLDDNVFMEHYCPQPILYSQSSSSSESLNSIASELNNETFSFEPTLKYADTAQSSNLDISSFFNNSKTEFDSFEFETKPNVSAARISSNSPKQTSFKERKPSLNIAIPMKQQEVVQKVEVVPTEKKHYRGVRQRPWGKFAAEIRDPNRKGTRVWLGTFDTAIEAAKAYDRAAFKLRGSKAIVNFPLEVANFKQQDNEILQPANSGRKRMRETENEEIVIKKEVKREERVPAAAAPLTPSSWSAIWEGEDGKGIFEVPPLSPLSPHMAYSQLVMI
Procedure: as §1, §2, §3

ERF3 = ERF3 (Nicotiana tabacum, UniProt Q40477 Q40477:1-225); assay: as above; conditions: tags: His tag (pET15b, Novagen); label: 32P 5' end; GATC 5' overhangs
Sequence of ERF3 (Q40477 whole entry, one chain of several): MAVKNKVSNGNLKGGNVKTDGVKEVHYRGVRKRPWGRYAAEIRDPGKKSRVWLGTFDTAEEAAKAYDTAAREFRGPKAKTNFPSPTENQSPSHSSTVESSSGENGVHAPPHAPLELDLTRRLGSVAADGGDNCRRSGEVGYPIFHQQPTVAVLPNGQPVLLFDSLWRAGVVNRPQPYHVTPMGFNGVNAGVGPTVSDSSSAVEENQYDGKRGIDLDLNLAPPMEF
Procedure: as §1, §2, §3

T1 sequence (Q40479 whole entry, the tested form may be a part, one chain of several): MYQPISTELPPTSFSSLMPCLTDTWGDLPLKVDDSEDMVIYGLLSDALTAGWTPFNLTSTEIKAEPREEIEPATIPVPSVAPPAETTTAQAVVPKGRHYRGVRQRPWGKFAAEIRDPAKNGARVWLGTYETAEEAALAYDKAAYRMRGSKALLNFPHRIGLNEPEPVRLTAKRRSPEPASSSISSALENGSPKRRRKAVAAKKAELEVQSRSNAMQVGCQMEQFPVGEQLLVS

Binder	binding result (ERF2 [1])	activity (ERF2 [2]) [fold]	activity (ERF1) [fold]	activity (ERF4) [fold]	activity (ERF3) [fold]
mERE (mutant GCC box) (dsDNA) DNA 1: GATCTCATAAGATCCTCCACTAAAATAAGACCGATCAAATAAGATCCTCCATG DNA 2: GATCCATGGAGGATCTTATTTGATCGGTCTTATTTTAGTGGAGGATCTTATGA	no binding				
ERE (2x GCC box) (dsDNA) DNA 1: GATCTCATAAGAGCCGCCACTAAAATAAGACCGATCAAATAAGAGCCGCCATG DNA 2: GATCCATGGCGGCTCTTATTTGATCGGTCTTATTTTAGTGGCGGCTCTTATGA		5	4	3.5	3

Reference: patent US7238857, “Ethylene-responsive transcription coactivators in plants” (Japan and Science and Technology Agency)
